From patent publication US20210261671A1 (HARPOON THERAPEUTICS, published 2021)

Legend:
[1] = target: T1, human FLT3 protein (human, UniProt P36888 27-541, limits assumed); assay: colorimetric ELISA, periplasmic extract
T1 construct: protein coated in the screening ELISA; also called ELISA FLT3
Description: (§1) Llamas were immunized with purified FLT3 protein expressed in Expi293 cells. A phage display library for expression of heavy variable antibody domains was constructed from circulating B cells isolated from the immunized llamas (See van der Linden, de Geus, Stok, Bos, van Wassenaar, Verrips, and Frenken. 2000. J Immunol Methods 240:185-195). Phage clones were screened for binding to FLT3 by expressing llama anti-FLT3 proteins in E. coli, preparing periplasmic extracts, and performing colorimetric ELISAs.

[2] = target: T1, human FLT3 protein; assay: colorimetric ELISA, signal over control wells lacking FLT3
Description: as §1

Row | Binder | ELISA FLT3 (absorbance) [1] | FLT3/control [2]
1 | FLL57 (VHH, llama anti-FLT3 variable domain; E. coli periplasmic extract) VHH: QVQLQESGGGLVQAGGSLRLSCAASGSTFSKNYIDWYRQAPGKQREWVAQITSGGNTHYEPSLKGRFTISRDNAKNTAYLQMNSLKPEDTAVYYCRILDYWGQGTQVTVSS | 1.4 absorbance | 9 ratio
2 | FLL62 (VHH, llama anti-FLT3 variable domain; E. coli periplasmic extract) VHH: QVQLQESGGGLVQAGGSLRLSCAASGSTSSRNYIDWYRQAPGKQREWVAQITSGGNTHYEPSLKGRFTISRDNAKNTAYLQMNSLKPEDTAVYYCRILDYWGQGTQVTVSS | 0.5 absorbance | 5 ratio
3 | FLL158 (VHH, llama anti-FLT3 variable domain; E. coli periplasmic extract) VHH: QVQLQESGGGLVQPGGSLRLSCAASGSTFGRNYIDWYRQAPGKQREWVAQITSGGNTHYEPSLKGRFTISRDNAKNTAYLQMNSLKPEDTAVYYCRILDYWGQGTQVTVSS | 2.1 absorbance | 17 ratio
4 | FLL86 (VHH, llama anti-FLT3 variable domain; E. coli periplasmic extract) VHH: QVQLQESGGGLVQPGDPLRLSCAASGSTFSRNYIDWYRQAPGKQREWVAQITSGGNTHYEPSLKGRFTISRDNAKNTAYLQMNSLKPEDTAVYYCRILDYWGQGTQVTVSS | 1.9 absorbance | 15 ratio
5 | FLL79 (VHH, llama anti-FLT3 variable domain; E. coli periplasmic extract) VHH: QVQLQESGGGLVQAGGSLRLSCSASGSTFSRNYIDWYRQAPGKQREWVAQITSGGNTHYEPSLKGRFTISRDNAKNTAYLQMNSLKPEDTAVYYCRILDYWGQGTQVTVSS | 0.6 absorbance | 4 ratio
6 | FLL154 (VHH, llama anti-FLT3 variable domain; E. coli periplasmic extract) VHH: QVQLQESGGGLVQAGGSLRLSCAVSGRTFSGFGTGWFRQAPGKEREFVAAISWSGGRTHYADSVKGRFTISRDNAKNTVYLQMNSLKPEDTAVYYCAGQVARAYDGNWYSRGDYWGQGTQVTVSS | 4 absorbance | 8 ratio
7 | FLL74 (VHH, llama anti-FLT3 variable domain; E. coli periplasmic extract) VHH: QVQLQESGGGLVQAGGSLRLSCRFSGRTFSGFGTGWFRQAPGKEREFVAAISWAGGRTHYEDSVKGRFTISRDNAKNTVYLQMNSLKPEDTAVYYCAVQVSRAYDGIWYSGGDYWGQGTQVTVSS | 3.9 absorbance | 6 ratio
8 | FLL99 (VHH, llama anti-FLT3 variable domain; E. coli periplasmic extract) VHH: QVQLQESGGGLVQAGGSLRLSCAVSGRTFSGFGTGWFRQAPGKEREFVAAISWDGGRTHYADFVKGRFTISRDNAKNTVYLQMNSLKPEDTAVYYCAAQVARAYDSRWYSGGDYWGQGTQVTVSS | 3.7 absorbance | 13 ratio
9 | FLL6 (VHH, llama anti-FLT3 variable domain; E. coli periplasmic extract) VHH: QVQLQESGGGLVQAGGSLRLSCAVSGRTFSGFGTGWFRQAPGKEREFVAAISWDGGRTHYADSVKGRFTISRDNAANTVYLQMNSLKPEDTAVYYCAGQVSRAYDSMWYGRDDYWGQGTQVTVSS | 3.8 absorbance | 16 ratio
10 | FLL83 (VHH, llama anti-FLT3 variable domain; E. coli periplasmic extract) VHH: QVQLQESGGGLVQAGGSLRLSCAVSGRTFSGFGTGWFRQAPGKEREFVAAISWSGGTTHYADSVKGRFTISRDNAENTVYLEMNSLKPEDTAVYICAGQVSRAYDSNWYSRDDYWGQGTQVTVSS | 3.8 absorbance | 35 ratio
11 | FLL38 (VHH, llama anti-FLT3 variable domain; E. coli periplasmic extract) VHH: QVQLQESGGGLVQAGGSLRLSCAVSGRTFSGFGTGWFRQAPGKEREFVAAVSWSGGTTEIADSVKGRFTISRDNAKNTVYLQMSSLKPGDTAVYYCAGQVARAYDSRWYSRGDYWGQGTQVTVSS | 4 absorbance | 45 ratio
12 | FLL94 (VHH, llama anti-FLT3 variable domain; E. coli periplasmic extract) VHH: QVQLQESGGGLVQAGGSLRLSCAVSGRTFSGFGTGWFRQAPEKEREFVAAISWDGGRTHYADSVKGRFTISRDNAKNTVYLQMNSLKPEDTAIYYCAGQVARAYDTRWYSRGDYWGQGTQVTVSS | 4 absorbance | 5 ratio
